Reference: publication PMC11549327 (Nature Communications, 2024)

Target: the molecule itself
Assay: cryo-EM structure

B1: E. coli ClpP-His6 (tetradecamer) (enzyme)
chain: not shown
With B1 the “stoichiometry N” value was 14.
